This assay has as its target HLA-A*02:01 (Homo sapiens, UniProt P04439, D140Y/D185E/D98H/E176V/E277Q/G131W/G231S/I119V/I121R/I166T/I218V/L300P/L318F/N151K/N90K/P208A/P217A/Q86G/Q94H/R138H/R169H/T345S). Put plainly: MHC binding assay (UV-ligand exchange, ELISA of exchange yield). The conditions noted are these: binding to HLA-A*02:01, UV-ligand exchange. Put shortly:
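ELISA of β2m retained on streptavidin-captured, 100-fold diluted complexes (HRP anti-β2m, TMB, 450 nm) gives the yield. Complexes come from UV-triggered exchange of a photocleavable placeholder peptide for the candidate, which must bind to stop complex dissociation.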
In the case of “363 (KVLDVSDLESV; listed as Homo sapiens) [compound 363]”, the “Peptide exchange (MHC class I binding score, peptide exchange yield)” value (from here on “Peptide exchange”) was ““++” (≥20% = ++)”.
For “364 (LLQNEQFEL; listed as Homo sapiens) [compound 364]”, the “Peptide exchange” value is listed as ““+++” (≥50 = +++)”.
Regarding “365 (YVIDQGETDVYV; listed as Homo sapiens) [compound 365]”, the “Peptide exchange” value is ““+++” (≥50 = +++)”.
With “366 (RLLDMGETDLML; listed as Homo sapiens) [compound 366]”, the “Peptide exchange” value is on record as ““+++” (≥50 = +++)”.
For the substance “367 (SLQNHNHQL; listed as Homo sapiens) [compound 367]”, the “Peptide exchange” value is given as ““+++” (≥50 = +++)”.
Then “369 (GLFPEHLIDV; listed as Homo sapiens) [compound 369]”, with ““+++” (≥50 = +++)”.
Then “370 (SLLQDLVSV; listed as Homo sapiens) [compound 370]”, with ““+++” (≥50 = +++)”; and “371 (FLQAHLHTA; listed as Homo sapiens) [compound 371]”, with ““++++” (≥75% = ++++)”.
Then “372 (TMLLNIPLV; listed as Homo sapiens) [compound 372]”, with ““++” (≥20% = ++)”; and “373 (SLLEDKGLAEV; listed as Homo sapiens) [compound 373]”, with ““++” (≥20% = ++)”; and “374 (FLLQQHLISA; listed as Homo sapiens) [compound 374]”, with ““++” (≥20% = ++)”.
“375 (SLTETIEGV; listed as Homo sapiens) [compound 375]”: the “Peptide exchange” value was ““++” (≥20% = ++)”.
Then “376 (AMFESSQNVLL; listed as Homo sapiens) [compound 376]”, with ““++” (≥20% = ++)”; and “377 (FLLDSSASV; listed as Homo sapiens) [compound 377]”, with ““++” (≥20% = ++)”.
As for “378 (ALGYFVPYV; listed as Homo sapiens) [compound 378]”, the entry is ““+++” (≥50 = +++)”; as for “379 (IMEGTLTRV; listed as Homo sapiens) [compound 379]”, ““++” (≥20% = ++)”; as for “380 (TLIEDEIATI; listed as Homo sapiens) [compound 380]”, ““++” (≥20% = ++)”.
Turning to “381 (FIDEAYVEV; listed as Homo sapiens) [compound 381]”, the “Peptide exchange” value is listed as ““++” (≥20% = ++)”.
With “382 (ALQNYIKEA; listed as Homo sapiens) [compound 382]”, the “Peptide exchange” value is ““++” (≥20% = ++)”.
Consider “383 (ALLELENSVTL; listed as Homo sapiens) [compound 383]”, for which the “Peptide exchange” value is ““+++” (≥50 = +++)”.
On to “384 (ILFANPNIFV; listed as Homo sapiens) [compound 384]”, for which the “Peptide exchange” value was ““+++” (≥50 = +++)”.
As for “385 (SLLEQGLVEA; listed as Homo sapiens) [compound 385]”, the “Peptide exchange” value is given as ““++” (≥20% = ++)”.
On to “386 (ILFRYPLTI; listed as Homo sapiens) [compound 386]”, for which the “Peptide exchange” value is given as ““+++” (≥50 = +++)”.
In the case of “387 (ALFQATAEV; listed as Homo sapiens) [compound 387]”, the “Peptide exchange” value is given as ““++++” (≥75% = ++++)”.
Then “388 (SLTIDGIRYV; listed as Homo sapiens) [compound 388]”, with ““+++” (≥50 = +++)”; and “389 (LLADVTHLL; listed as Homo sapiens) [compound 389]”, with ““++” (≥20% = ++)”.
As for “390 (ALFMKQIYL; listed as Homo sapiens) [compound 390]”, the entry is ““+++” (≥50 = +++)”; as for “391 (YVYPQRLNFV; listed as Homo sapiens) [compound 391]”, ““+++” (≥50 = +++)”; as for “392 (ALLHPQGFEV; listed as Homo sapiens) [compound 392]”, ““++” (≥20% = ++)”.
As for “393 (GLLDTQTSQVLTA; listed as Homo sapiens) [compound 393]”, the entry is ““++” (≥20% = ++)”; as for “394 (LLAVIGGLVYL; listed as Homo sapiens) [compound 394]”, ““+++” (≥50 = +++)”.
In the case of “395 (ALALGGIAVV; listed as Homo sapiens) [compound 395]”, the “Peptide exchange” value was ““++++” (≥75% = ++++)”.
As for “396 (ALLPDLPAL; listed as Homo sapiens) [compound 396]”, the entry is ““+++” (≥50 = +++)”; as for “397 (YLFGERLLEC; listed as Homo sapiens) [compound 397]”, ““+++” (≥50 = +++)”; as for “398 (KLLEEDGTIITL; listed as Homo sapiens) [compound 398]”, ““++” (≥20% = ++)”.
Turning to “399 (YLFEPLYHV; listed as Homo sapiens) [compound 399]”, the “Peptide exchange” value is recorded as ““+++” (≥50 = +++)”.
“400 (SLLTEQDLWTV; listed as Homo sapiens) [compound 400]”: the “Peptide exchange” value was ““++” (≥20% = ++)”.
Turning to “401 (ILLDDTGLAYI; listed as Homo sapiens) [compound 401]”, the “Peptide exchange” value was ““+++” (≥50 = +++)”.
Take “402 (VLFSGALLGL; listed as Homo sapiens) [compound 402]”: the “Peptide exchange” value is listed as ““++” (≥20% = ++)”.
For the substance “403 (KLYDRILRV; listed as Homo sapiens) [compound 403]”, the “Peptide exchange” value was ““++” (≥20% = ++)”.
As for “405 (ALYDVFLEV; listed as Homo sapiens) [compound 405]”, the entry is ““++” (≥20% = ++)”.
As for “407 (YLMDLINFL; listed as Homo sapiens) [compound 407]”, the “Peptide exchange” value is ““+++” (≥50 = +++)”.
As for “408 (VLDDSIYLV; listed as Homo sapiens) [compound 408]”, the entry is ““++” (≥20% = ++)”; as for “409 (LLDAMNYHL; listed as Homo sapiens) [compound 409]”, ““++” (≥20% = ++)”; as for “412 (YLDDLNEGVYI; listed as Homo sapiens) [compound 412]”, ““++” (≥20% = ++)”.
As for “426 (RLADKSVLV; listed as Homo sapiens) [compound 426]”, the entry is ““+++” (≥50 = +++)”.
“427 (ALLPLSPYL; listed as Homo sapiens) [compound 427]”: the “Peptide exchange” value is ““+++” (≥50 = +++)”.
With “428 (KLGHTDILVGV; listed as Homo sapiens) [compound 428]”, the “Peptide exchange” value is on record as ““++” (≥20% = ++)”.
Turning to “429 (GLVNDLARV; listed as Homo sapiens) [compound 429]”, the “Peptide exchange” value is ““++” (≥20% = ++)”.
For the substance “430 (HLYSSIEHLTT; listed as Homo sapiens) [compound 430]”, the “Peptide exchange” value is ““+++” (≥50 = +++)”.
For the substance “431 (SLVNVVPKL; listed as Homo sapiens) [compound 431]”, the “Peptide exchange” value is ““++” (≥20% = ++)”.
As for “432 (TLIEESAKV; listed as Homo sapiens) [compound 432]”, the entry is ““++” (≥20% = ++)”.
As for “433 (AMLNEPWAV; listed as Homo sapiens) [compound 433]”, the entry is ““+++” (≥50 = +++)”.
Then “434 (KVSNSGITRV; listed as Homo sapiens) [compound 434]”, with ““++” (≥20% = ++)”; and “436 (HLAEVSAEV; listed as Homo sapiens) [compound 436]”, with ““+++” (≥50 = +++)”.
Regarding “437 (SMAPGLVIQAV; listed as Homo sapiens) [compound 437]”, the “Peptide exchange” value is listed as ““+++” (≥50 = +++)”.
As for “438 (KLLPLAGLYL; listed as Homo sapiens) [compound 438]”, the “Peptide exchange” value is recorded as ““++++” (≥75% = ++++)”.
As for “439 (YLLQEIYGI; listed as Homo sapiens) [compound 439]”, the entry is ““+++” (≥50 = +++)”; as for “440 (ALADGVTMQV; listed as Homo sapiens) [compound 440]”, ““++” (≥20% = ++)”; as for “441 (ALLENPKMEL; listed as Homo sapiens) [compound 441]”, ““+++” (≥50 = +++)”.
Then “442 (GLLGGGGVLGV; listed as Homo sapiens) [compound 442]”, with ““+++” (≥50 = +++)”.

The values are drawn from patent US10047131B2, “Peptides and combination of peptides for use in immunotherapy against ovarian cancer and other cancers” (immatics biotechnologies GmbH, priority 2015, dated 2018).
